Data on 3 molecules can be found in US20100216693A1 (published 2010).

B1: C-peptide variant Glu11-Ala (peptide)
peptide: EAEDLQVGQVALGGGPGAGSLQPLALEGSLQ
B2: C-peptide variant Glu27-Ala (peptide)
peptide: EAEDLQVGQVELGGGPGAGSLQPLALAGSLQ
notes: also called Glu27Ala C-peptide analogue
B3: C-peptide variant with Glu3, 11 and 27 all exchanged for Ala (peptide)
peptide: EAADLQVGQVALGGGPGAGSLQPLALAGSLQ

T1 sequence (chain, as listed by the source, chain 1 of 2): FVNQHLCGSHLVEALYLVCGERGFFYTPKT
T1 sequence (chain, as listed by the source, chain 2 of 2): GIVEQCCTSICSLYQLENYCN

The assay concerns the target T1, Human insulin (Actrapid) (human).
T1 construct: On the chip it was coupled through the N-terminus (amine coupling) or the C-terminus (surface thiol coupling); also called free insulin; immobilized insulin
The experiment in a line: SPR, immobilized insulin.
Regarding B1, the binding result is reported as “no binding”. In the case of B2, the binding result is on record as “no binding”. Next, B3: “no binding”.
